Measured values from the supplement of paper PMC10567573.

B1: BCL2L13 (parent)
chain: MASSSTVPLGFHYETKYVVLSYLG

Variants of: B1
Test: protein stability index of a GFP-peptide fusion (GPS, HEK-293T) (PSI 1-6); higher = more stable
Settings: c terminus: a fixed tail appended
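Also: lentivirally expressed fusions sorted by FACS into six bins by GFP to DsRed ratio, PSI derived from sequencing read proportions per bin multiplied by bin number.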

| Variant | protein stability index |
| --- | --- |
| MASSSTVPLGFHYETKYVVLDYLG [S21D] | 2.24 |
| MASSSTVPLGFHYETKYVVLIYLG [S21I] | 2.36 |
| MASSSTVPLGFHYETKYVVLHYLG [S21H] | 2.27 |
| MASSSTVPLGFHYETKYVVLGYLG [S21G] | 1.62 |
| MASSSTVPLGFHYETKYVVLFYLG [S21F] | 3.84 |
| MASSSTVPLGFHYETKYVVLQYLG [S21Q] | 3.52 |
| MASSSTVPLGFHYETKYVVLEYLG [S21E] | 1.24 |
| MASSSTVPLGFHYETKYVVLCYLG [S21C] | 3.12 |
| MASSSTVPLGFHYETKYVVLPYLG [S21P] | 2.35 |
| MASSSTVPLGFHYETKYVVLKYLG [S21K] | 1.45 |
| MASSSTVPLGFHYETKYVVLRYLG [S21R] | 3.78 |
| MASSSTVPLGFHYETKYVVLLYLG [S21L] | 3.41 |
| MASSSTVPLGFHYETKYVVLTYLG [S21T] | 2.72 |
| MASSSTVPLGFHYETKYVVLWYLG [S21W] | 3.36 |
| MASSSTVPLGFHYETKYVVLYYLG [S21Y] | 2.51 |
| MASSSTVPLGFHYETKYVVLNYLG [S21N] | 2.4 |
| MASSSTVPLGFHYETKYVVLAYLG [S21A] | 3.51 |
| MASSSTVPLGFHYETKYVVDSYLG [L20D] | 2.18 |
| MASSSTVPLGFHYETKYVVPSYLG [L20P] | 1.7 |
| MASSSTVPLGFHYETKYVVFSYLG [L20F] | 3.51 |
| MASSSTVPLGFHYETKYVVGSYLG [L20G] | 1.74 |
| MASSSTVPLGFHYETKYVVKSYLG [L20K] | 2.52 |
| MASSSTVPLGFHYETKYVVESYLG [L20E] | 1.78 |
| MASSSTVPLGFHYETKYVVMSYLG [L20M] | 2.37 |

| Variant | protein stability index |
| --- | --- |
| MASSSTVPLGFHYETKYVVHSYLG [L20H] | 2.01 |
| MASSSTVPLGFHYETKYVVYSYLG [L20Y] | 2.88 |
| MASSSTVPLGFHYETKYVVSSYLG [L20S] | 1.69 |
| MASSSTVPLGFHYETKYVVNSYLG [L20N] | 1.65 |
| MASSSTVPLGFHYETKYVVQSYLG [L20Q] | 2.19 |
| MASSSTVPLGFHYETKYVVISYLG [L20I] | 1.71 |
| MASSSTVPLGFHYETKYVVTSYLG [L20T] | 2.17 |
| MASSSTVPLGFHYETKYVVASYLG [L20A] | 2.12 |
| MASSSTVPLGFHYETKYVVWSYLG [L20W] | 2.22 |
| MASSSTVPLGFHYETKYVVVSYLG [L20V] | 2.82 |
| MASSSTVPLGFHYETKYVVCSYLG [L20C] | 2.58 |
| MASSSTVPLGFHYETKYVVRSYLG [L20R] | 1.48 |
| MASSSTVPLGFHYEGKYVVLSYLG [T15G] | 1.34 |
| MASSSTVPLGFHYEWKYVVLSYLG [T15W] | 2.05 |
| MASSSTVPLGFHYELKYVVLSYLG [T15L] | 2.1 |
| MASSSTVPLGFHYEDKYVVLSYLG [T15D] | 2.03 |
| MASSSTVPLGFHYEHKYVVLSYLG [T15H] | 1.91 |
| MASSSTVPLGFHYERKYVVLSYLG [T15R] | 1.36 |
| MASSSTVPLGFHYEPKYVVLSYLG [T15P] | 2.06 |
| MASSSTVPLGFHYEEKYVVLSYLG [T15E] | 2.61 |
| MASSSTVPLGFHYENKYVVLSYLG [T15N] | 1.75 |
| MASSSTVPLGFHYESKYVVLSYLG [T15S] | 1.11 |
| MASSSTVPLGFHYEKKYVVLSYLG [T15K] | 1.4 |
| MASSSTVPLGFHYEMKYVVLSYLG [T15M] | 2.79 |

| Variant | protein stability index |
| --- | --- |
| MASSSTVPLGFHYECKYVVLSYLG [T15C] | 1.71 |
| MASSSTVPLGFHYEVKYVVLSYLG [T15V] | 3.06 |
| MASSSTVPLGFHYEFKYVVLSYLG [T15F] | 1.5 |
| MASSSTVPLGFHYEQKYVVLSYLG [T15Q] | 2.84 |
| MASSSTVPLGFHYEIKYVVLSYLG [T15I] | 3.13 |
| MASSSTVPLGFHYEYKYVVLSYLG [T15Y] | 2.75 |
| MASSSTVPLGFHYETKYVCLSYLG [V19C] | 2.34 |
| MASSSTVPLGFHYETKYVYLSYLG [V19Y] | 2.63 |
| MASSSTVPLGFHYETKYVFLSYLG [V19F] | 1.5 |
| MASSSTVPLGFHYETKYVPLSYLG [V19P] | 2.2 |
| MASSSTVPLGFHYETKYVRLSYLG [V19R] | 1.41 |
| MASSSTVPLGFHYETKYVTLSYLG [V19T] | 3.32 |
| MASSSTVPLGFHYETKYVELSYLG [V19E] | 1.7 |
| MASSSTVPLGFHYETKYVLLSYLG [V19L] | 2.29 |
| MASSSTVPLGFHYETKYVHLSYLG [V19H] | 1.73 |
| MASSSTVPLGFHYETKYVILSYLG [V19I] | 3.19 |
| MASSSTVPLGFHYETKYVMLSYLG [V19M] | 3.27 |
| MASSSTVPLGFHYETKYVQLSYLG [V19Q] | 1.71 |
| MASSSTVPLGFHYETKYVDLSYLG [V19D] | 1.45 |
| MASSSTVPLGFHYETKYVALSYLG [V19A] | 1.99 |
| MASSSTVPLGFHYETKYVGLSYLG [V19G] | 2.09 |
| MASSSTVPLGFHYETKYVSLSYLG [V19S] | 2.19 |
| MASSSTVPLGFHYETKYVNLSYLG [V19N] | 1.94 |
| MASSSTVPLGFHYETKYVKLSYLG [V19K] | 1.34 |

| Variant | protein stability index |
| --- | --- |
| MASSSTVPLGFHYETKYVWLSYLG [V19W] | 1.91 |
| MASSSTVPLGFHYETWYVVLSYLG [K16W] | 2.56 |
| MASSSTVPLGFHYETVYVVLSYLG [K16V] | 2.53 |
| MASSSTVPLGFHYETNYVVLSYLG [K16N] | 3.56 |
| MASSSTVPLGFHYETCYVVLSYLG [K16C] | 4.41 |
| MASSSTVPLGFHYETQYVVLSYLG [K16Q] | 2.6 |
| MASSSTVPLGFHYETRYVVLSYLG [K16R] | 2.55 |
| MASSSTVPLGFHYETHYVVLSYLG [K16H] | 1.46 |
| MASSSTVPLGFHYETPYVVLSYLG [K16P] | 1.83 |
| MASSSTVPLGFHYETLYVVLSYLG [K16L] | 2.04 |
| MASSSTVPLGFHYETGYVVLSYLG [K16G] | 2.38 |
| MASSSTVPLGFHYETAYVVLSYLG [K16A] | 2.64 |
| MASSSTVPLGFHYETEYVVLSYLG [K16E] | 4.22 |
| MASSSTVPLGFHYETYYVVLSYLG [K16Y] | 3.26 |
| MASSSTVPLGFHYETIYVVLSYLG [K16I] | 2.74 |
| MASSSTVPLGFHYETSYVVLSYLG [K16S] | 2.81 |
| MASSSTVPLGFHYETDYVVLSYLG [K16D] | 3.26 |
| MASSSTVPLGFHYETMYVVLSYLG [K16M] | 2.61 |
| MASSSTVPLGFHYETFYVVLSYLG [K16F] | 2.32 |
| MASSSTVPLGFHYETKYRVLSYLG [V18R] | 1.88 |
| MASSSTVPLGFHYETKYQVLSYLG [V18Q] | 1.37 |
| MASSSTVPLGFHYETKYWVLSYLG [V18W] | 1.84 |
